# Results from patent publication US8399213B2, “Method for monitoring intracellular tyrosine phosphatase activity” (University of Southern California, priority 2008, dated 2013).
# Square brackets hold non-standard residues; d marks the D form. Ends that are not written are not given here. Ala(7-OPO3H2-coumarin-4-yl) = N[C@@H](Cc1cc(=O)oc2cc(OP(=O)(O)O)ccc12)C(=O)O
# Experiments:
# PTPN22 = molecular target: T1, PTPN22 (Homo sapiens, UniProt Q9Y2R2); experiment: Dephosphorylation of pCAP peptide by PTPN22; format: biochemical
# T1 sequence (Q9Y2R2 1-807): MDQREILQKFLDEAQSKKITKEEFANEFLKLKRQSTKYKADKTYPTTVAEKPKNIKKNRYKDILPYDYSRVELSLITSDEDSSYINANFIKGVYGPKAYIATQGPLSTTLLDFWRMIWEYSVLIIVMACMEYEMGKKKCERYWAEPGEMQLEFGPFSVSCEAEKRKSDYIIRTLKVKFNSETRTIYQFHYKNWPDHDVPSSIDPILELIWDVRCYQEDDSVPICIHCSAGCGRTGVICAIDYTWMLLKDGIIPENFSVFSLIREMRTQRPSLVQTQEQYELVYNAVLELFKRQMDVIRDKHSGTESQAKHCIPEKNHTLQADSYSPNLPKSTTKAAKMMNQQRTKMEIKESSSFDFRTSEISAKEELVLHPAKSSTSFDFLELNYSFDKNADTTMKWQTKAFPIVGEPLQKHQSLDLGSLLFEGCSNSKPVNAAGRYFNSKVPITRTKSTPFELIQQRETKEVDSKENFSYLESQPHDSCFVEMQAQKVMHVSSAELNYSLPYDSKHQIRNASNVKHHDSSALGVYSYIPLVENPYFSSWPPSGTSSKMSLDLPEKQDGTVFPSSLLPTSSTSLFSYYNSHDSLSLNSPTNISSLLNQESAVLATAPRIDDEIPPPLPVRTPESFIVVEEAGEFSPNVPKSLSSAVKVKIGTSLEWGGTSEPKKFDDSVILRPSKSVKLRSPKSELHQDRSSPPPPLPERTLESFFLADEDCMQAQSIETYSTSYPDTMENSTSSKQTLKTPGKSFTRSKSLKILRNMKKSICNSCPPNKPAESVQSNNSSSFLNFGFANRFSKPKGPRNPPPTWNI
# Description: (§1) (A) Structure of CAP, pCAP, and Et2-pCAP, a non-hydrolyzable form of pCAP. (B) Kinetic parameters of dephosphorylation of 9LckpCAP394 peptide by PTPN22. (C) Time-course of dephosphorylation of 0.2 mM 9LckpCAP394 peptide by PP1 (filled triangles), PP2A (open squares), or PP2B (filled squares). Linear regression is also shown. The activity of the enzymes was normalized using difluoromethylumbelliferone phosphate (DiFMUP) as substrate and equal units were used for all the assays on pCAP peptide. Open diamonds and dashed line show representative activity of all enzymes on 0.2 mM DiFMUP.
# (§2) The amount of enzyme used was normalized to be the same activity on DiFMUP. […] To determine if these peptides are suitable substrates for cell-based screening of PTP inhibitors, the inventors further assessed dephosphorylation in microinjected cells. […] In principle, any FACS system equipped with the appropriate excitation and emission filters could be used. […] Human Jurkat TAg (JTAg) cells with CAP-ANT and CAP-R8 peptides were incubated and analyzed by flow cytometry.
# [1] = system: serine-threonine phosphatases (PP1, PP2A, PP2B); experiment: Dephosphorylation of pCAP peptide by serine-threonine phosphatases, plate reader time-course; format: biochemical; conditions: 0.2 mM peptide; optimal buffer for each enzyme; enzyme amount normalized to same activity on DiFMUP
# Description: as §1, §2
# T cell PTP (TCPTP) = molecular target: T2, T cell PTP (TCPTP) (Homo sapiens, UniProt P17706); conditions: cited from earlier work
# T2 sequence (P17706 1-415): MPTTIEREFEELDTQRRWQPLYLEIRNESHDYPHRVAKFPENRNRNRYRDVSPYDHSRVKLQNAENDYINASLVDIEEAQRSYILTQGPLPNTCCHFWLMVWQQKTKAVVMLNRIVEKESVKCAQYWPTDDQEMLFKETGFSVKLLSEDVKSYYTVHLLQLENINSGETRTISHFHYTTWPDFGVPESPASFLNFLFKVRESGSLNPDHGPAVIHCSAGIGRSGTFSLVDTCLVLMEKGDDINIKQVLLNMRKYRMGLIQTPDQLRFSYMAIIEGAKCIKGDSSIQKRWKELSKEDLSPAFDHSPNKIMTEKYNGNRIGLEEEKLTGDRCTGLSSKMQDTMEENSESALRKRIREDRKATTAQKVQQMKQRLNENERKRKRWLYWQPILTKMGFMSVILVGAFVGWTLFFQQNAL
# YOP = YOP (Yersinia enterocolitica, UniProt P15273); conditions: excitation at 340 nm and emission at 460 nm; cited from earlier work
# YOP, sequence (P15273 whole entry): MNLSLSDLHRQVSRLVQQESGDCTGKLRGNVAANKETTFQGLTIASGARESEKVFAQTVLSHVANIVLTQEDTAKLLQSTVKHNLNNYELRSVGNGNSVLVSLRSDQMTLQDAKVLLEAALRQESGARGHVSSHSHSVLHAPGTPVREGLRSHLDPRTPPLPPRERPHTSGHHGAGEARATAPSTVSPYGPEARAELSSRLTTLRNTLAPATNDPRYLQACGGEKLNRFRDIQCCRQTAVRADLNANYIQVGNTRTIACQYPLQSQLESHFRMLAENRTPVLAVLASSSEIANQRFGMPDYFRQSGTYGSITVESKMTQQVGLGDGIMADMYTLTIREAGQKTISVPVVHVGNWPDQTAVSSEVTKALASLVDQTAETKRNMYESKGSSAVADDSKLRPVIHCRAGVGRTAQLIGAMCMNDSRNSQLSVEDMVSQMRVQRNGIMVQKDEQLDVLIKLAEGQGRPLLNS
# [2] = system: T3, 9LckpCAP394 peptide (EDNE-pCAP-TARE)
# T3 sequence: EDNEXTARE
# [3] = system: intracellular PTPs in JTAg cells; experiment: Intracellular dephosphorylation of nucleofected pCAP peptide, flow cytometry; format: cell-based, human; conditions: preincubated with 10 mM vanadate; 100 μM 9LckpCAP394 peptide; 1′ after nucleofection
# Description: FIG. 3. Dephosphorylation of pCAP peptide by intracellular PTPs after nucleofection. (A) Time-course of intracellular dephosphorylation of nucleofected 9Lck394 CAP-based peptides. JTAg human T cells were nucleofected in the presence of 100 μM pCAP peptide (blue lines), 100 μM CAP peptide (red lines) or 100 μM of a non-hydrolyzable Et2pCAP peptide (green lines). Cell fluorescence was measured using a BD LSR-II with a DAPI filter at 30″ (dotted lines) and 1′ (continuous lines). […] (B) Fluorescence of non-nucleofected JTAg cells incubated in the presence of the CAP-based peptides used for the experiment in panel (A). Graphs show fluorescence of non-nucleofected cells incubated with 100 μM pCAP peptide (dashed blue line), 100 μM CAP peptide (dashed red line) or 100 μM of a non-hydrolyzable Et2pCAP peptide (dashed green line). Data from panel (A) and (B) are representative of the same experiment. […] JTAg cells were nucleofected in the presence of 100 μM 9LckpCAP394 peptide and cell fluorescence was measured at 1′ (pink line), 2.5′ (purple line), 5′ (light blue line), and 10′ (dark blue line). […]
# FIG. 4. […] Dashed red and blue lines show fluorescence of non-nucleofected cells incubated with pCAP peptide (blue dashed line) or CAP peptide (red dashed line), and vanadate.
# FIG. 5. […] The fluorescence of cells was assessed at 1′ (black lines) or 15′ (yellow lines) after fixation. […]
# Jurkat TAg (JTAg) cells = experiment: Cellular uptake of cell-permeable CAP peptides, flow cytometry; format: cell-based; conditions: JTAg T cells treated with lipid-R7 peptides
# Description: FIG. 6. […] Cells were incubated for 1 hour with RPMI with 0.5% FBS with DMSO alone or containing 12.5 μM of Ant-CAP or R8-CAP. The fluorescence (Y axis) versus forward scatter (X axis) of 10,000 cells gated as live T cells on the forward versus side scatter plot is shown. The percentage (%) of positive (showing fluorescence over the control level) cells is shown in each panel.
# The inventors have shown that pCAP peptides are dephosphorylated by PTPs, but are not recognized by serine/threonine phosphatases, which makes them particularly suitable as probes to detect intracellular PTP activity (FIG. 1). […] The amount of enzyme used was normalized to be the same activity on DiFMUP. […] To determine if these peptides are suitable substrates for cell-based screening of PTP inhibitors, the inventors further assessed dephosphorylation in microinjected cells. Using fluorescence microscopy, intracellular dephosphorylation of the microinjected peptides was observed as recognized by an increase in fluorescence over time and was inhibited by a known PTP inhibitor (FIG. 2). […] Human Jurkat TAg (JTAg) cells with CAP-ANT and CAP-R8 peptides were incubated and analyzed by flow cytometry. […]
# Cells are added to wells of a plate at a concentration of up to 10 million/mL. […] Cells can be analyzed with any flow cytometry system equipped with appropriate excitation and emission filters.
# [4] = molecular target: T4, 9LckpCAP394 peptide (EDNE-pCAP-TARE)
# T4 chain: EDNEXTARE
molecule,measurement,setting,value
"EDNE-pCAP-TARE (EDNE[Ala(7-OPO3H2-coumarin-4-yl)]TARE) [9Lck394p CAP, pCAP peptide, artificial PTPN22 substrate]",hydrolysis by PTPN22,PTPN22,efficiently hydrolyzed
same,hydrolysis by serine-threonine phosphatases,[1],ineffective at hydrolysis
"DADE-pCAP-GPAA-NH2 (DADEXGPAX; pCAP residue, C-terminal amide; artificial YOP substrate) [peptide 1]",turnover by human PTPs including TCPTP,T cell PTP (TCPTP),efficiently turned over
same,fluorescence change on dephosphorylation by YOP,YOP,linear increase in fluorescence
PP1,"hydrolysis (dephosphorylation) of 0.2 mM pCAP peptide over time, fluorescence excitation 340 nm / emission 460 nm",[2],The serine-threonine phosphatases were ineffective at hydrolysis of this peptide
PP2B,"hydrolysis (dephosphorylation) of 0.2 mM pCAP peptide over time, fluorescence excitation 340 nm / emission 460 nm",[2],The serine-threonine phosphatases were ineffective at hydrolysis of this peptide
"[O]=[V]([O-])([O-])[O-] [Vanadate, vanadate]",inhibition of dephosphorylation of pCAP peptide in nucleofected JTAg cells,[3],inhibits the dephosphorylation
C14-betaAla-R7-CAP,efficacy of internalization compared to non-lipidic tags,Jurkat TAg (JTAg) cells,substantially increase efficacy of internalization
C16-betaAla-R7-CAP,efficacy of internalization compared to non-lipidic tags,Jurkat TAg (JTAg) cells,substantially increase efficacy of internalization
PP2A,"hydrolysis (dephosphorylation) of 0.2 mM pCAP peptide over time, fluorescence excitation 340 nm / emission 460 nm",[2],The serine-threonine phosphatases were ineffective at hydrolysis of this peptide
PTPN22 (protein) MDQREILQKFLDEAQSKKITKEEFANEFLKLKRQSTKYKADKTYPTTVAEKPKNIKKNRYKDILPYDYSRVELSLITSDEDSSYINANFIKGVYGPKAYIATQGPLSTTLLDFWRMIWEYSVLIIVMACMEYEMGKKKCERYWAEPGEMQLEFGPFSVSCEAEKRKSDYIIRTLKVKFNSETRTIYQFHYKNWPDHDVPSSIDPILELIWDVRCYQEDDSVPICIHCSAGCGRTGVICAIDYTWMLLKDGIIPENFSVFSLIREMRTQRPSLVQTQEQYELVYNAVLELFKRQM,"hydrolysis (dephosphorylation) of pCAP peptide, fluorescence excitation 340 nm / emission 460 nm",[4],efficiently hydrolyzed by PTPN22
